Experimental data: PMC3565967, “Biochemical Similarities and Differences between the Catalytic [4Fe-4S] Cluster Containing Fumarases FumA and FumB from Escherichia coli” (PLoS ONE, 2013)

Assays:
FumB = target: T1, FumB (Escherichia coli, UniProt P14407); assay: fumarate depletion at […] nm, Michaelis-Menten fit; type: biochemical; conditions: anaerobic, 100 mM EPPS pH 8, 5% glycerol, 0.5 mM DTT, 37 °C; regenerated [4Fe-4S] enzyme
T1 construct: full length, N-terminal His-tag (pET15b, gene from plasmid pGS56), expressed in E. coli BL21(DE3); [4Fe-4S] cluster regenerated with Fe2+ and L-cysteine; homodimer circa 120 kDa

FumA = FumA (Escherichia coli, UniProt P0AC33); assay: fumarate depletion at […] nm, Michaelis-Menten fit; type: biochemical; conditions: anaerobic, 100 mM EPPS pH 8, 5% glycerol, 0.5 mM DTT, 37 °C; regenerated [4Fe-4S] enzyme
purified protein [1] = substrate: O=C(O)C(O)C(O)C(=O)O; assay: purified protein; conditions: anaerobic, 100 mM EPPS pH 8, 5% glycerol, 0.5 mM DTT, 100 µM NADH, 1 mM MgCl2, 37 °C, regenerated [4Fe-4S] enzyme
purified protein [2] = substrate: O=C(O)C[C@H](O)C(=O)O; assay: purified protein; conditions: anaerobic, 100 mM EPPS pH 8, 5% glycerol, 0.5 mM DTT, 37 °C, regenerated [4Fe-4S] enzyme
[3] = target: the molecule itself; assay: SEC; Superdex 200, to estimate the molecular weight of the native enzyme; data not shown

Row | Molecule | Km (FumB) | Km (FumA) | Km (purified protein [1]) | Vmax (purified protein [1]) | kcat/Km (purified protein [1]) | Km (purified protein [2]) | Vmax (purified protein [2]) | kcat/Km (purified protein [2]) | stoichiometry N [3]
1 | O=C(O)/C=C/C(=O)O [fumarate] | 320 ± 40 µM | 460 ± 80 µM | – | – | – | – | – | – | –
2 | Fumarase B (FumB) from Escherichia coli (enzyme, E. coli, UniProt P14407 1-548, looked up, FumB, class I [4Fe-4S] fumarase of E. coli; the gene from plasmid pGS56 was cloned into pET15b; After nickel column purification the enzyme held [3Fe-4S] clusters in only 10-25% of the protein, the rest being apoprotein; also called fumarate hydratase class I, anaerobic; source: E. coli BL21(DE3), pET15b-FumB, purified (nickel sepharose column)) MSNKPFIYQAPFPMGKDNTEYYLLTSDYVSVADFDGETILKVEPEALTLLAQQAFHDASFMLRPAHQKQVAAILHDPEASENDKYVALQFLRNSEIAAKGVLPTCQDTGTAIIVGKKGQRVWTGGGDEETLSKGVYNTYIEDNLRYSQNAALDMYKEVNTGTNLPAQIDLYAVDGDEYKFLCVAKGGGSANKTYLYQETKALLTPGKLKNFLVEKMRTLGTAACPPYHIAFVIGGTSAETNLKTVKLASAHYYDELPTEGNEHGQAFRDVQLEQELLEEAQKLGLGAQFGGKYFAHDIRVIRLPRHGASCPVGMGVSCSADRNIKAKINREGIWIEKLEHNPGQYIPQELRQAGEGEAVKVDLNRPMKEILAQLSQYPVSTRLSLTGTIIVGRDIAHAKLKELIDAGKELPQYIKDHPIYYAGPAKTPAGYPSGSLGPTTAGRMDSYVDLLQSHGGSMIMLAKGNRSQQVTDACHKHGGFYLGSIGGPAAVLAQQSIKHLECVAYPELGMEAIWKIEVEDFPAFILVDDKGNDFFQQIVNKQCANCTK | – | – | 800 ± 100 µM | 9.2±0.4 umol product/minute/mg enzyme | (12±2)⋅10^3 s^-1 M^-1 | 300 ± 70 µM | (4.9±0.3)·10^2 umol product/minute/mg enzyme | (1.6±0.4)⋅10^6 s^-1 M^-1 | 2
3 | FumA (Escherichia coli K-12) (protein) SNKPFHYQAPFPLKKDDTEYYLLTSEHVSVSEFEGQEILKVAPEALTLLARQAFHDASFMLRPAHQQQVADILRDPEASENDKYVALQFLRNSDIAAKGVLPTCQDTGTAIIVGKKGQRVWTGGGDEAALARGVYNTYIEDNLRYSQNAPLDMYKEVNTGTNLPAQIDLYAVDGDEYKFLCIAKGGGSANKTYLYQETKALLTPGKLKNYLVEKMRTLGTAACPPYHIAFVIGGTSAETNLKTVKLASAKYYDELPTEGNEHGQAFRDVELEKELLIEAQNLGLGAQFGGKYFAHDIRVIRLPRHGASCPVGMGVSCSADRNIKAKINRQGIWIEKLEHNPGKYIPEELRKAGEGEAVRVDLNRPMKEILAQLSQYPVSTRLSLNGTIIVGRDIAHAKLKERMDNGEGLPQYIKDHPIYYAGPAKTPEGYASGSLGPTTAGRMDSYVDQLQAQGGSMIMLAKGNRSQQVTDACKKHGGFYLGSIGGPAAVLAQGSIKSLECVEYPELGMEAIWKIEVEDFPAFILVDDKGNDFFQQIQLTQCTRCVK | – | – | 800 ± 300 µM | 2.3±0.3 umol product/minute/mg enzyme | (3±1)⋅10^3 s^-1 M^-1 | 700 ± 100 µM | (7.2±0.4)·10^2 umol product/minute/mg enzyme | (1.0±0.2)⋅10^6 s^-1 M^-1 | –
